Four molecules from paper PMC4083092 can be followed below.

The target in data set [1] is T1, CPEB1 RRM12 (tandem RRMs) (Homo sapiens, UniProt Q9BZB8 285-355+361-514, internal_change). Kind of data set: NMR.
Data set [2] addresses CPEB1 ZZ domain (isolated) (Homo sapiens, UniProt Q9BZB8 503-566). As to the kind of experiment: NMR titration.
The target of data set [3] is T2, CPEB4 RRM12 (tandem RRMs) (Homo sapiens, UniProt Q17RY0-3 54-256).
T2 sequence: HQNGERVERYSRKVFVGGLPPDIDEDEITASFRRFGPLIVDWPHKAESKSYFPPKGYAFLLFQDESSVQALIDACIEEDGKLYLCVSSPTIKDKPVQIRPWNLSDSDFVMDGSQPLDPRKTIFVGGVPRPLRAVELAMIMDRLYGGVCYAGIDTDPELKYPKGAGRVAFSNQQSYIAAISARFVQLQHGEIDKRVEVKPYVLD
As to the kind of experiment: NMR titration.

For data set [4], the target named is T1, CPEB1 RRM12 (tandem RRMs). Kind of data set: NMR titration.
The target in data set [5] is T1, CPEB1 RRM12 (tandem RRMs). As to the kind of experiment: NMR titration and solution structure.

B1: CUUUA (ssRNA)
RNA: CUUUA
As to B1, the binding result in data set [1] was “binds”.

B2: UUUUUAU (consensus CPE) (ssRNA)
RNA: UUUUUAU
B2: the binding result in data set [2] is on record as “no binding”.

B3: UUUUAU (consensus CPE) (ssRNA)
RNA: UUUUAU
As for B3, the binding result in data set [3] and in data set [4] was “binds” throughout.

B4: UUUUA (ssRNA)
RNA: UUUUA
In the case of B4, the binding result in data set [5] is recorded as “binds”.
